Experiments:
Nem1-3×Flag = assay: co-IP (GFP IP, anti-Flag western blot, band intensity quantified); settings: ΔSpo7::Nem1-Flag strain; parent: est. 100; read off a plot
[1] = target: Spo7^L50R (co-IP construct) (Botryosphaeria dothidea); assay: co-IP; GFP and Flag fusion constructs transformed in pairs into B. dothidea LW03 (Spo7-Pah1 also in the ΔNem1 mutant); total proteins incubated with anti-GFP agarose; eluates blotted with anti-Flag and anti-GFP antibodies
[2] = target: Spo7^L51R (co-IP construct) (Botryosphaeria dothidea); assay: as above
[3] = target: Spo7^I52R (co-IP construct) (Botryosphaeria dothidea); assay: as above
[4] = target: Spo7^3R (co-IP construct) (Botryosphaeria dothidea); assay: as above

| Substance | percent of parent (Nem1-3×Flag) [%] | other results |
| --- | --- | --- |
| GFP-Spo7 I52A | 98 | – |
| GFP-Spo7 L50A | 108 | – |
| GFP-Spo7 L50A; L51A; I52A | 97 | – |
| GFP-Spo7 L51A | 100 | – |
| Nem1-3×Flag (enzyme) | – | percent reduction of the interaction level against wild-type Spo7 (Nem1-Flag band in GFP IP) [1]: 72%; percent reduction of the interaction level against wild-type Spo7 (Nem1-Flag band in GFP IP) [2]: 68%; percent reduction of the interaction level against wild-type Spo7 (Nem1-Flag band in GFP IP) [3]: 55%; percent reduction of the interaction level against wild-type Spo7 (Nem1-Flag band in GFP IP) [4]: 93% |

— publication PMC10269782
